Data as given in US20240218064A1 (AstraZeneca / MedImmune, published 2024).

B1: MEDI6570 Fab (Fab, V domains shown)
VH: QVQLVQSGAEVKKPGASVKVSCKVSGYTLTELSMHWVRQAPGKGLEWMGGFDPEDFKYHTHQKFQGRVTMTEDTSTDTAYMELSSLRSEDTAVYYCALVWGTQGKGVRGWDYYYGMDVWGQGTTVTVSS
VL: QSVVTQPPSVSGAPGQRVTISCTGSSSNIGAGYDVHWYQQLPGTAPKLLIYGNSNRPSGVPDRFSGSKSGTSASLAITGLQAEDEADYYCQSYDSSLSGWVFGGGTKLTVL
notes: also called Fab of the antibody MEDI6570
B2: MEDI6570 (antibody, human IgG1, lambda, V domains shown)
VH: B1 VH
VL: QSVVTQPPSVSGAPGQRVTISCTGSSSNIGAGYDVHWYQQLPGTAPKLLIYGNSNRPSGVPDRFSGSKSGTSASLAITGLQAEDEADYYCQSYDSSLSGWVFGGGTKLTVLG
notes: Fully human IgG1-lambda; also called LX5140110-IgG1-TM

What was measured:
cynomolgus monkey LOX-1 = cynomolgus monkey LOX-1 (cynomolgus monkey, UniProt A0A2K5VQ73 79-291); assay: BIAcore (SPR)
[1] = target: T1, human LOX-1 (lectin-like oxidized low density lipoprotein receptor-1) (human, UniProt P78380 61-273); assay: BIAcore (SPR); Fab, not full mAb; LOX-1
[2] = target: T1, human LOX-1 (lectin-like oxidized low …); assay: in vitro inhibition of ligand binding to human LOX-1; competitor ligand CRP; ligand CRP
Source text: (§1) FIG. 3. MEDI6570 inhibition of ligand binding. AGE-BSA=advanced glycation end products-bovine serum albumin; CRP=c-reactive protein; IgG-immunoglobulin G; OxLDL=oxidized low-density lipoprotein. Antibodies were titrated across a 384 well dilution plate in assay buffer (PBS/0.1% BSA/0.01% Tween 20) over 24 points in duplicate.
(§2) The ability of MEDI6570 to inhibit binding of the LOX-1 ligands oxLDL, AGE (advanced glycation end products, in this case glycated bovine serum albumin, BSA) and CRP was determined using in vitro assays. AGEs are known ligands of LOX-1. They commonly occur in patients that have poorly regulated levels of blood glucose, which is a risk factor for cardiovascular disease.

[3] = target: T1, human LOX-1 (lectin-like oxidized low …); assay: in vitro inhibition of ligand binding to human LOX-1; competitor ligand oxLDL; ligand oxLDL
Source text: as §1, §2

[4] = target: T1, human LOX-1 (lectin-like oxidized low …); assay: in vitro inhibition of ligand binding to human LOX-1; competitor ligand AGE-BSA; ligand AGE-BSA
Source text: as §1, §2

[5] = target: T2, soluble LOX-1 (sLOX-1) in sera of participants with T2DM (human, UniProt P78380 89-273, limits assumed); assay: sLOX-1 in sera of participants with T2DM; the paragraph names BIAcore, the method for this value is not made clear; full mAb; sLOX-1 in sera of participants with T2DM
T2 construct: domain: cleaved soluble domain of LOX-1; Endogenous protein in patient serum; also called soluble lectin-like oxidized low-density lipoprotein receptor 1

| Binder | Kd (cynomolgus monkey LOX-1) [pM] | Kd [1] [pM] | IC50 [2] [pM] | IC50 [3] [pM] | IC50 [4] [pM] | Kd [5] [pM] |
| --- | --- | --- | --- | --- | --- | --- |
| B1 | 116 | 56 | – | – | – | – |
| B2 | – | – | 4800 | 340 | 540 | ~173 |
